Data: paper PMC7383614, “Computational Design of Enantiocomplementary Epoxide Hydrolases for Asymmetric Synthesis of Aliphatic and Aromatic Diols” (Chembiochem, 2020)
Changes are numbered by the printed parent chain. Names and notes keep the numbering of the source.

How the values were obtained:
Assay in all cases: initial velocities of diol formation, Michaelis-Menten fit
Format in all cases: biochemical, Rhodococcus erythropolis
Conditions in all cases: buffer and temperature of kinetics not given (activity assays: 50 mM HEPES pH 8, 30 °C)
[1] = substrate: C1CC2OC2C1
Description: (§1) initial velocities of diol formation, Michaelis-Menten fit on LEH-P (thermostable limonene epoxide hydrolase)

[2] = substrate: C[C@@H]1O[C@@H]1C
Description: as §1

[3] = substrate: c1ccc([C@H]2O[C@H]2c2ccccc2)cc1
Description: as §1

[4] = variant 43A, single measurement, margin from average coefficient of variation

B1: LEH-P (thermostable limonene epoxide hydrolase) (Rhodococcus erythropolis; A19K/E45K/N92K/S15P/T2A/T76K/T85V/Y96F) (protein)
chain: MASKIEQPRWASKDPAAGKASTPDEKIVLEFMDALTSNDAAKLIKYFAEDTMYQNMPLPPAYGRDAVEQTLAGLFKVMSIDAVEVFHIGSSKGLVFTERVDVLRALPTGKSYNLSILGVFQLTEGKITGWRDYFDLREFEEAVDLPLRG
notes: N-terminal hexa-His tag; expressed in E. coli; dimeric
Km [1]: 4200 ± 200 µM | kcat [1]: 0.035 ± 0.004 s⁻¹ | kcat/Km [1]: 7.9 M⁻¹ s⁻¹ | Km [2]: 18000 ± 1000 µM | kcat [2]: 0.056 ± 0.01 s⁻¹ | kcat/Km [2]: 3.1 M⁻¹ s⁻¹ | Km [3]: 370 ± 20 µM | kcat [3]: 0.147 ± 0.012 s⁻¹ | kcat/Km [3]: 406 M⁻¹ s⁻¹

B2: LEH-P (thermostable limonene epoxide hydrolase) (Rhodococcus erythropolis; A19K/E45K/F134Y/F139W/L103V/L74I/N92K/S15P/T2A/T76K/T85V/Y96F) (protein)
chain: B1 chain with L74I, L103V, F134Y, F139W
notes: as for B1
Km [1, 4]: 35000 ± 4000 µM | kcat [1, 4]: 0.017 ± 0.005 s⁻¹ | kcat/Km [1, 4]: 0.48 M⁻¹ s⁻¹

B3: LEH-P (thermostable limonene epoxide hydrolase) (Rhodococcus erythropolis; A19K/E45K/F139L/I80W/L103V/L35G/M32L/N92K/S15P/T2A/T76K/T85V/Y96F) (protein)
chain: B1 chain with M32L, L35G, I80W, L103V, F139L
notes: as for B1
Km ([3]; variant 60A): 60 ± 10 µM | kcat ([3]; variant 60A): 0.052 ± 0.006 s⁻¹ | kcat/Km ([3]; variant 60A): 890 M⁻¹ s⁻¹

B4: LEH-P (thermostable limonene epoxide hydrolase) (Rhodococcus erythropolis; A19K/E45K/F139L/I116V/I80F/L103I/M32A/M78I/N92K/S15P/T2A/T76K/T85V/Y96F) (protein)
chain: B1 chain with M32A, M78I, I80F, L103I, I116V, F139L
notes: as for B1
Km ([1]; variant 24A): 3000 ± 200 µM | kcat ([1]; variant 24A): 0.005 ± 0.001 s⁻¹ | kcat/Km ([1]; variant 24A): 1.9 M⁻¹ s⁻¹

B5: LEH-P (thermostable limonene epoxide hydrolase) (Rhodococcus erythropolis; A19K/E45K/F139L/I116F/L103I/L114M/L35M/M32L/N92K/S15P/T2A/T76K/T85V/Y96F) (protein)
chain: B1 chain with M32L, L35M, L103I, L114M, I116F, F139L
notes: as for B1
Km ([3]; variant 41B): 190 ± 20 µM | kcat ([3]; variant 41B): 0.002 ± 0.001 s⁻¹ | kcat/Km ([3]; variant 41B): 10.5 M⁻¹ s⁻¹

B6: LEH-P (thermostable limonene epoxide hydrolase) (Rhodococcus erythropolis; A19K/E45K/I116F/L103I/L114M/L35M/M32L/M78I/N92K/S15P/T2A/T76K/T85V/Y96F) (protein)
chain: B1 chain with M32L, L35M, M78I, L103I, L114M, I116F
notes: as for B1
Km ([3]; variant 52A): 160 ± 30 µM | kcat ([3]; variant 52A): 0.003 ± 0.001 s⁻¹ | kcat/Km ([3]; variant 52A): 19 M⁻¹ s⁻¹
